experiment: soluble on expression in E. coli; label from the status in PepcDB or PDB records

Sequence | soluble on expression in E. coli
MGSDKIHHHHHHMSKITFKDIYIDGNKITEDSRKAIYLLPPQPLKYASNTWIYKTMPTMNQWLKDIEVQKKMHLNQSSYHLSFSFPANEKIDEVLLEKIRELGFQIGVLELYVIEAKALKELSRKRDVDIQLVSSNNINDYLHVYDAFARPFGDSYANMVKQHIYSSYNLDDIERLVAYVNHQPVGIVDIIMTDKTIEIDGFGVLEEFQHQGIGSEIQAYVGRMANERPVILVADGKDTAKDMYLRQGYVYQGFKYHILKENI | not soluble
MHLYDKRPGGGASFSQILGQAKNRQGIFFNTTFAVMGHVAKASGRVTETDIRIATLLMDQMRLTGDARKEAQQAFREGKEPDFDLCSSLQAFRAVTQGRQELVQMFIEIQIQTALSDGELDAAEHAILMTVAQELGYGRLEHHHHHH | not soluble
MAGDPMLTAPPKEAARPTLMPRAQSYKDLTHLPAPTGKIFVSVYNIQDETGQFKPYPASNFSTAVPQSATAMLVTALKDSRWFIPLERQGLQNLLNERKIIRAAQENGTVAINNRIPLQSLTAANIMVEGSIIGYESNVKSGGVGARYFGIGADTQYQLDQIAVNLRVVNVSTGEILSSVNTSKTILSYEVQAGVFRFIDYQRLLEGEVGYTSNEPVMLCLMSAIETGVIFLINDGIDRGLWDLQNKAERQNDILVKYRHMSVPPESLEHHHHHH | not soluble
MTPAQLTGTTDSHLQSTMVGQKAFLMHPDVANDLLNMIEAAKKAGFKMEIASGFRDFSRQRAIWNGKYEGELPILDSNSQPLNKAALSDEEKLKAILRWSALPGGSRHHWGCDFDVYARNLLPPDTKLQLEPWEYLEGHQLAFYCWLKDHIDEFGFFFPYLQDLGGVAIEPWHISHKAIGQQCAAQLNAEMLKDELVRQNQQHNIAGLESILNNLDSILSTYIRNITPPPEAL | not soluble
MGSDKIHHHHHHMDSMQTTETFQVLKIGADAYIKRRNQRLLSNHRKDLRKFTRAEAFTYLDIDAKTLDKYVATADFDPRRHEDSQWLINIEEMYQLRDLLPENLRKASKFKRSDNQKMQVIVIQNQKGGVGKTVSAATIASGLATEFHQEYRVGLIDMDGQATLSMYYAPEADLEGCLSVGDLMMNNFDLDEGETLEQVVSNAFLPTTIPNLRILPASQSDRAIEGWFHEQVFGQKLTSPYSLLNTIINAVQDEFDIIIIDTPPSLGYATYNAYFAATSVVFPLSITENDIDATCSYFSYIPQVWALLANANHRGYDFMKILITNHRDSATTTDLMNTLYDHFAPYMYSNEFKHSEAIRQSSSLLSTVFDMSKSEYPKSKATFQSAQQNCYEVTSQVLRDIVNVWREQEQA | not soluble
MADESETAVKPPAPPLPQMMEGNGNGHEHCSDCENEEDNSYNRGGLSPANDTGAKKKKKKQKKKKEKGSETDSAQDQPVKMNSLPAERIQEIQKAIELFSVGQGPAKTMEEASKRSYQFWDTQPVPKLGEVVNTHGPVEPDKDNIRQEPYTLPQGFTWDALDLGDRGVLKELYTLLNENYVEDDDNMFRFDYSPEFLLWALRPPGWLPQWHCGVRVVSSRKLVGFISAIPANIHIYDTEKKMVEINFLCVHKKLRSKRVAPVLIREITRRVHLEGIFQAVYTAGVVLPKPVGTCRYWHRSLNPRKLIEVKFSHLSRNMTMQRTMKLYRLPETPKTAGLRPMETKDIPVVHQLLTRYLKQFHLTPVMSQEEVEHWFYPQENIIDTFVVENANGEVTDFLSFYTLPSTIMNHPTHKSLKAAYSFYNVHTQTPLLDLMSDALVLAKMKGFDVFNALDLMENKTFLEKLKFGIGDGNLQYYLYNWKCPSMGAEKVGIVLQ | soluble
MSMPETKTRSVALTPPLHTPRLLLLPLQLEDAPAMQSLFNHWEVVRYLTHHVPWPYPEGEALRYLREDALPAMQDGEEWHWSIRLRSQQDRLIGSACMMDEQDNNRGFWLSPAYQGLGLMSEVCVAIDRFWFETLKRPVLRVAKCALNEASCRLSQREGMRLVTVQESQFVCGTTQEQLWELTRDEWRANNGG | not soluble
SNPSSSGGTTKRFRTKFTAEQKEKMLAFAERLGWRIQKHDDVAVEQFCAETGVRRQVLKIWMHNNKN | soluble
MKAIILGIQNILEVLLEDIGILKMESIFLHTNITNIPHSVLYVSLSYYIINPCTSASSNLDDSFS | soluble
MGSDKIHHHHHHMLGRTANGLYWMFRYIERAENSARLIDAGLRMSLTRSEAAEDDWDGVLQSADVRELYDQVHEGLTSGDAIDFLLRDRTNPSSVMSCIEAGRNNARMVRTALTRETWEAINECWIEMKGILARRAKTTDMPEIIDTIKRRAGLIRGAFHGTMLRNEIFNFSRIGTFIERADNTARILDVKYYVLLPAVSAVGSSMDNVQWESILRSVSAHRSYGWVYDAELRPANIADFLIANGRMPRSLAYCYDKLVSNLGYLAREYGERHAAHETAEQTLGLLRSQSIAEIMDQGLHQYLKEFINQNNRLGREISDGYRFYQ | not soluble
MRRVLVGAAALITALLVLTGCTKSISGTAVKAGGAGVPRNNNSQERYPNLLKECEVLTTDILAKTVGADPLDIQSTFVGAICRWQAANPAGLIDITRFWFEQGSLSNERKVAEGLKYQVETRAIQGVDSIVMRTGDPNGACGVASDAAGVVGWWVNPQAPGIDACGQAIKLMELTLATNA | soluble
MAHHHHHHMQKPIMIVGTSAPRRREIAQRHFGATYDLVYLSPDIDEKQIRDSDPFTLTRAIAQAKMDELRVKVARDAALQDRVAKRPGSVAITFDQVVDYHGEIREKPASEQQAAAFIHAYSNDNLGTVMTTVLYDFGTGKQVSMPNTTLTFYGEIPDETVARVVERGACLRTAGGFVVEDVDMKRCEIKIDPGTEEEVCGFCEKSVRALLEGVQRPWVQSDHCSDGKR | not soluble
AEPESCGTVRFSDVGWTDITATTATATTILEALGYETDVKVLSVPVTYTSLKNKDIDVFLGNWMPTMEADIAPYREDKSVETVRENLAGAKYTLATNAKGAELGIKDFKDIAAHKDELDGKIYGIEPGNDGNRLIIDMVEKGTFDLKGFEVVESSEQGMLAQVARAEKSGDPIVFLGWEPHPMNANFKLTYLSGGDDVFGPNYGGATVHTNVRAGYTTECPNVDKLLQNLSFSLQMENEIMGKILNDGEDPEKAAAAWLKDNPQSIEPWLSGVATKDGGDGLAAVKAALGLEHHHHHH | soluble
PKNKAKKNPVRFYKNNFFMLKDKVNNIYVYVYEHKKNDNYNDLYLPRDNVFPYLGRVYINNDNGFIINDVYFSSERIGVKNYYDKDNPILINKHSSEGNRSYGYEPETFAEIKFKTKLDNISKSQIEYIIEFKPYDSIVDYVGDNIKKTLREPVKIEGTFEIIKEDEAEIIRLHNADIFGLYNVESILFSSERIFSGNVFNFDYLFINGKEKINSSINGVKEFSDEFLKDKINENKNIVESYVKESKQRHWKSLMDESILNYIDNYADYYNELKEFKSFNILYYDDKTISLYKRVSKLEDLKLAEIDNMFMTFELESQKLISPYIKDFVNDSEALLKKYNAPSDFYSNIDSLIFGITDSFIIIMNEKGCGKIFIDYKNIKEYINKDHYLAYLFN | not soluble
MQSPPGKPEIHKCRSPDKETFTCWWNPGTDGGLPTNYSLTYSKEGEKTTYECPDYKTSGPNSCFFSKQYTSIWKIYIITVNATNQMGSSSSDPLYVDVTYIVEPEPPRNLTLEVKQLKDKKTYLWVKWSPPTITDVKTGWFTMEYEIRLKPEEAEEWEIHFTGHQTQFKVFDLYPGQKYLVQTRCKPDHGYWSRWSQESSVEMPNDFTLKDRSRSHHHHHH | soluble
GPGSMQPRKTVKKVDVEPSPEEDAELLPHLKVSAKWSERAANNGKSLSQVQFLLGALGKQLEDCNKELASVYANADLLSSLRITEYRQRNTPGGLLTPTRKARTKRNASTRPVARQQLDENSTEALIAAMDEKKRARVTAALIAFFKRDMQEQNSPAYQNASTPVPQGANHSSTRTSQTLGRIPSANSHTMLCESNKGNQPSCSNGNELPTLLSETQQQQLRRHRDIPPELWDEMAKLRLRRLSLEEKIGSLLSNINAQTERFGLLMEVQGVNSYSTESVNRAIEMIRQKRA | soluble
MTQQIKYKRVLLKLSGESLMGSDPFGINHDTIVQTVGEIAEVVKMGVQVGIVVGGGNIFRGVSAQAGSMDRATADYMGMMATVMNALALKDAFETLGIKARVQSALSMQQIAETYARPKAIQYLEEGKVVIFAAGTGNPFFTTDTAAALRGAEMNCDVMLKATNVDGVYTADPKKDPSATRYETITFDEALLKNLKVMDATAFALCRERKLNIVVFGIAKEGSLKRVITGEDEGTLVHC | soluble

From the DeepSol protein solubility set
